Patent US20020107174A1, “COMPOSITION COMPRISING ENDOTOXIN NEUTRALIZING PROTEIN AND DERIVATIVES AND USES THEREOF” (priority 1998, published 2002)

Tests used:
Bortadella sp. = assay: Growth inhibition of Bortadella sp., optical density; conditions: GMS alone
Description: An LAL 5000 spectrophotometer (Associates of Cape Cod) was used to monitor optical density changes over time when bacteria were grown in sterilized Luria broth (LB). The LAL 5000 can accommodate up to 32 individual 10×75 mm glass test tubes in its circular array. Automated temperature control was maintained at 37° C. for these experiments. LB was placed into sterile, oven depyrogenated glass test tubes. […] Other gram-negative (E. coli strains Rosenbergii sp., K12, X10, HB101, Shewanella sp., Bortadella sp.) and gram-positive bacteria (e.g., S. aureus, and Bacillus spp.) were grown in this manner and changes in optical density were monitored over time. The optical density data was collected, stored and analyzed by computer which was interfaced with the LAL 5000.
The tubes were then inoculated with cells from a log phase culture of Bortadella sp. Optical density of each tube was monitored via method described above.

E. coli strain 25303 = assay: Growth inhibition of E. coli in Luria broth, optical density (LAL 5000); type: cell-based
Description: E. coli cells were cultured overnight at 37° C. in LB. Aliquots were diluted 1:100 in fresh LB (control). LB plus PMB was serially diluted from 0.25 μg/ml to 0.001 μg/ml. LB plus Limulus ENP was formulated at concentrations from 20 to 0.07,μg/ml. Optical density of the cell culture was recorded at 410 nm during the course of the experiment.
The tubes were then inoculated with cells of a log phase E. coli culture.
TET was serially diluted with LB in ten-fold increments from 10 μg/ml to 0.0001 μg/ml.
E. coli cells were cultured overnight at 37° C. in LB. Aliquots of the culture were diluted 1:100 in fresh LB as controls. Test samples consisted of cells in: LB plus AMP at 2.5 μg/ml; LB plus Limulus ENP at 25 and 5 μg/ml; and combination of 2.5 μg/ml AMP and either 2.5 or 5.0 μg/ml Limulus ENP. Optical density of the cell samples was recorded at 410 nm during the course of the experiment.

meningococcal endotoxins = conditions: rabbits, cited from earlier work
E. coli cultures = assay: Endotoxin levels in antibiotic-inhibited cultures, Limulus amebocyte lysate (LAL) assay; type: cell-based
Description: Antibiotic-inhibited gram-negative bacteria release endotoxins into the medium. […] E. coli cultures treated with antibiotic alone or in combination with Limulus ENP were prepared and incubated as described in Sections 6.3.1 and 6.3.2, above. The endotoxin levels present in the cultures were measured using the standard Limulus amebocyte lysate (LAL) assay.

E. coli endotoxins = conditions: rabbits, cited from earlier work
[1] = system: Propionibacterium acnes, ATCC No. 11827; assay: Zone inhibition assay; type: cell-based; conditions: 4 mm disc treated with 10 μl (Limulus ENP 1 mg/ml; benzoyl peroxide 0.05%), overnight at 37° C.
Description: The inhibitory effect of a recombinant Limulus ENP (i.e., that expressed from the fusion protein II construct discussed above) was tested against Propionibacterium acnes, the bacterium that causes acne, using a zone inhibition assay. Petri dishes were filled with sterile nutrient agar following standard microbiological procedures. The nutrient agar-filled dishes were allowed to cool and harden before being inoculated with test bacteria. Using a sterile swab, the surface of the petri dishes were inoculated with a culture of Propionibacterium acnes, ATCC No. 11827, that had grown overnight at 37° C.
Sterile filter paper discs (4 mm, Whatman) were treated with 10 μl of aqueous solutions of (1) recombinant Limulus ENP at a concentration of 1 mg/ml (the test sample); (2) benzoyl peroxide at a concentration of 0.05% (the positive control); or (3) sterile saline (the negative control). Benzoyl peroxide serves as a positive control because it is known to inhibit the growth of Propionibncterium acnes.
The treated filter paper discs were placed on the inoculated plates and the plates incubated overnight at 37° C. The Limulus ENP disc produced a zone of inhibition having a diameter of 4-5 mm. The benzoyl peroxide disc produced a zone of inhibition having a diameter of 10-11 mm. The negative control disc produced no zone of inhibition.

endotoxins = assay: Biological activity of recombinant Limulus ENP from S. cerevisiae; conditions: from pCGS965-transformed S. cerevisiae
Text: In one yeast expression system, an expression construct encoding the aforementioned fusion protein I was inserted into an autonomous replicating plasmid yielding pCGS965 (FIG. 9). This plasmid, in turn, was used to transform S. cerevisiae strain 2470. pCGS965 carries the gene for uracil production, which complements the host strain's auxotrophy for this base. Recombinant Limulus ENP has been expressed, purified, and characterized from pCGS965-transformed cells grown at the 500 liter scale. Fusion protein I was expressed and correctly processed, and the Limulus ENP secreted into the medium. The recombinantly produced Limulus ENP has biological activity identical to that of ENP isolated from Limulus amebocytes.

[2] = system: uncharacterized gram-positive bacterium isolated from marine organisms; assay: Growth inhibition of gram-positive bacterium from marine organisms, optical density at 410 nm; type: cell-based; conditions: Limulus ENP at 2.5 or 5 μg/ml
Description: An uncharacterized gram-positive bacterium isolated from marine organisms was cultured overnight at 37° C. in LB. Aliquots of the culture were diluted 1:100 in fresh LB as controls. Test samples consisted of cells in LB plus LimulusENP at 2.5 or 5.0 μg/ml. The control and Limulus ENP-treated cultures were incubated at 37° C. Optical density of the cultures was recorded at 410 nm during the course of the experiment to monitor the growth of the gram-positive bacterium.

[3] = system: Pool 4 (Yeast): Candida parapilosis, C. albicans; assay: Preservative challenge of oil in water emulsion, plate count, Pool 4; type: cell-based; conditions: 0.01% (weight/volume) in emulsion, eight week period
Description: (§1) The cell numbers of the pools were quantitated by serial dilution. That is, the number of viable cells was determined by taking an aliquot from the sample, diluting it and culturing it so that colonies arising from individual cells could be counted.
(§2) An oil in water emulsion was prepared comprising the following ingredients:
(§3) To test its antimicrobial activity, Limulus ENP was added to the emulsion to achieve a concentration of about 0.01 weight percent, with appropriate adjustment of distilled water. Control and Limulus ENP-containing emulsions were inoculated with 10^8 viable cells from each of the five microorganism pools. The number of viable microbial cells was determined by plate count at the time of the initial inoculating, and at weekly intervals up to 8 weeks. After obtaining an aliquot for cell count at Week 3, microbes were re-inoculated to initial levels. The weekly cell counts are shown in Table 5 as logs of the cell number.

[4] = system: Pool 5 (Fungi): Aspergillus niger; assay: Preservative challenge of oil in water emulsion, plate count, Pool 5; type: cell-based; conditions: 0.01% (weight/volume) in emulsion, eight week period
Description: as §1, §2, §3

[5] = system: Escherichia coli endotoxin; conditions: rats; cited from earlier work
E. coli = conditions: rabbits; cited from earlier work
[6] = system: encapsulated strain of E. coli; conditions: rats, cited from earlier work
[7] = system: rough gram-negative bacteria; conditions: cited from earlier work
human endothelial cells = conditions: cited from earlier work
human macrophages = conditions: cited from earlier work
murine splenocytes = conditions: cited from earlier work
[8] = system: endotoxins or lipid A from gram-negative bacteria; conditions: ENP added in excess; cited from earlier work
[9] = compared with anti-endotoxin antibody HA-1A

gentamycin sulfate [GMS]
lowest effective concentration which almost totally inhibited the growth of Bortadella sp. (Bortadella sp.): 10 µg/mL
effective concentration which substantially inhibits the growth of E. coli (E. coli strain 25303; GMS alone, Luria broth): 0.5 µg/mL

polymixin B [PMB, reference compound]
physiologic functions or mortality (meningococcal endotoxins; pretreatment with PMB alone): failed to improve
ENDOTOXIN LEVEL (E. coli cultures; E. coli cultures inhibited by PMB at 5 μg/ml): 3.8 µg/mL
inhibition of growth of E. coli (E. coli strain 25303; 0.06 μg/ml PMB alone): approximately 20%
lowest effective concentration which totally inhibited the growth of E. coli (E. coli strain 25303; PMB alone, Luria broth): 5 µg/mL
shock and mortality (E. coli endotoxins; pretreatment with PMB, potent dose of E. coli endotoxins): effective in preventing shock and mortality

O=C(OOC(=O)c1ccccc1)c1ccccc1 [benzoyl peroxide, reference compound]
zone of inhibition, diameter [1]: 10-11 mm

B1: Limulus ENP: the 11.8 kDa ENP from the horseshoe crab Limulus polyphemus; residues 5 to 105 of SEQ ID NO:2 or SEQ ID NO:5 (protein, listed as Limulus polyphemus)
chain: DGIWTQLIFTLVNNLATLWQSGDFQFLDHECHYRIKPTFRRLKWKYKGKFWCPSWTSITGRATKSSRSGAVEHSVRNFVGQAKSSGLITQRQAEQFISQYN
biological activity compared with ENP isolated from Limulus amebocytes (endotoxins): identical
growth of the gram-positive bacterium [2]: effectively inhibited
effect of serum proteins on biological activity, antimicrobial properties and endotoxin binding activity (E. coli cultures; serum-containing media): did not adversely affect
zone of inhibition, diameter [1]: 4-5 mm
killing and re-growth of the yeasts Candida parapilosis and Candida albicans [3]: effective at killing and preventing the re-growth
effect on the fungus Aspergiltus niger [4]: limited fungal growth

B2: ENP: protein found in horseshoe crab amebocyte lysates that binds and neutralizes the biological activity of endotoxins (protein, listed as Limulus polyphemus)
chain: B1 chain
protection against lethal Escherichia coli endotoxin challenge [5]: protective
survival rate with E. coli sepsis (E. coli): improve the survival rate
circulating endotoxin concentrations [6, 9]: significantly lower
survival rates [6, 9]: improved survival rates
lethal effect of endotoxins released by the infecting E. coli ([6]; dose of 50 mg/kg, also when administered after endotoxin had circulated): blocked the lethal effect
survival rate with E. coli sepsis [6]: improve the survival rate
physiological functions and survival rate (meningococcal endotoxins; administered 30 minutes after meningococcal endotoxin challenges): significantly improved
protection against lethal meningococcal challenge (meningococcal endotoxins): protective
growth of rough gram-negative bacteria [7]: inhibits the growth
endotoxin induction of activation of human endothelial cells (human endothelial cells): inhibit
endotoxin induction of release of tumor necrosis factor by human macrophages (human macrophages): inhibit
endotoxin induction of mitogenesis of murine splenocytes (murine splenocytes): inhibit
physiological functions and survival rate (E. coli endotoxins; 2.5 or 5 mg/kg before lethal endotoxin challenges): significantly improved
survival rates (E. coli endotoxins; administered 30 min. after endotoxin challenge): improved survival rates
endotoxin activity in the mixture [8]: greatly reduced
